Test results reported in the DeepSol protein solubility set.

Experiment: soluble on expression in E. coli; label from the status in PepcDB or PDB records

Row | Sequence | soluble on expression in E. coli
1 | MKKGVLFDLDGTILDFEKSEDQALKRTFLKYGIPLTEDQVFLYREINRKWWKLLAEGKVSKDVVVVARFEEFLKTLNIPLDPRKVAKDYLEFLSEEAHFLPGAEEFLERLKKKDLRMAVVTNGVRFVQEKRSRKLKLDRFFEFVLTSEEAGVEKPDPRIFWLALERMKLKKEEVLYVGDDFSSDLEGARNAGIDFVLFSSDGDSSGDFPVARNFKELEKIVEEFL | soluble
2 | MSNYEKVYIGTYTNGESRGIYSFNIISDSRKTTAPILSCEIENPTYLTFNMNNKTAYSVIKSGNLGGAASFYVDDRNNHLELLNCKFGYENPPERFSGKQPCYVSLDKTNSYLFSVNYHTSRVDVFPIRNDGSIDTVSSFVIHEGFGPNKERQETSHVHCAVTTPLNDFLCVVDLGTDKIVLYRFDDGILCRFNEFKLKPGCGPRHIIFHPNGKIAYIATELSSEVIVLKYSPLDGSFEELQYVSCLPTDYTGKNGSAAIHISRNSNYLYVSNRGHNSISCFHVDNSTGLLTLNSNTSTYGLSPRDFDLSSSGNLLIAANQDSSNLTIFSVDQVSGNLSKITSDIYVPNPVCVKFYHDKLEHHHHHH | not soluble
3 | GSGTMEKGTFTLKDIYKQIEAMNKMGPVRKIFEMLPFGLGLKVDNDVMEMTQEKMKKFRVIMDSMTEEELLNPKIIDSSRIRRIAIGSGTSPQEVKELLNYYKTMKNLMKKMKKNKLPI | soluble
4 | MQQQKTVQPEAKQKVEVGVLAIRGHLYAEQRWQPTIDWLNQQISDVHFELHPLNLDEMGEAVKFQTMDFILTNPGQAVRLGRQYALSWMATLTGRAPQNSNYSIGSALVVRANSPYQTLKDVSGFPVAAVSEKAFGGYLTLRYQIVEMGLDPNDFFADVRYLGFPIDANLYQLRDGNVEAAVVPACLLEQMQNEGLLQHGDFRVLNQQPNEHSSCAVSTPLYPNWSFAKTERGSSLLAKKIAQVLLAMPPEHP | not soluble
5 | MQEESYYNLTVGDTHDRLHNFQITVDTDYRNFVQLVNTMRSPNIAQQDRAFLQLQQLGLQHPDYIRKARVPETMRQFAEGAAGKRRIRSCHGTYLHWYDEGLKVDMKSGEAGTCENWIIEDWNEKVVFRAVDPRGKYLRACLGSNQLTLVYIPEPTELWSPFENGNGTWSFLSSNGTWLSAHEDGQVCTVKDRQACEEFLLESW | not soluble
6 | MGSDKIHHHHHHMGYRLTRENLNTLFHKLKEDYLIYAPKRLIGKGAFSDTDRVRYDKINNVEEIEFDVKSDFSFKEILLPISETLFFFTEDSVKEAEGPKKGAIIFLRSCDINAVKRLDQIYLKNGFEDHYYKRIREKVKFVLMPCKTSFENCFCVSMGTNQADMYDASVELREEHFYIDNKEEKWKEFLKEVSLEELEVKPSFVMENKTKVKVPEGITTKIFKSKMWDEYDSRCINCGRCNFVCPTCTCFSMQDIFYTDNGKAGERRRVWASCMVDGFTNVAGGGSYRSKNGQRMRFKVMHKVYDYKKRNGYHMCVGCGRCDDICPEYISFSNCINKLKGAIKEVEDNE | not soluble
7 | MPGSLPPNGESSWPKDVGIVALEIYFPSQYVDQEELEKFDGVSAGKYTIGLGQSKMGFCSDREDINSLCLTAVQRLMERNNLSYDCIGRLEVGTETIIDKSKSVKTVLMQLFEESGNTDVEGIDTTNACYGGTAALFNAVNWVESSSWDGRYALVVAGDIAVYATGSARPTGGAGAVAMLVGPNATLVFERGLRGTHMQHAYDFYKPDMESEYPVVDGKLSIQCYLSALDHCYSTYRKKIHAQWQKEGTEKPFTLNDFGFMIFHSPYCKLVQKSFARLLVNDFISDSNPNTESGVYVGLDSFRDLKLEETYFDRDVEKAFLKASTELFNEKTKTSLLVSKENGNMYTPSVYGCLASVLAQYSPQQLAGQRIGVFSYGSGFAATLYSLRVSQDAMPGSSLDKLTSSLSDLKARLDSRKNVSPSIFADNMKLREDTHHLANYVPQGSVDDLFPGTWYLVRVDEKHRRFYARSSLMRDGPLDAAPESVHSSTANEHFPSPAKKVPRIPPAAEAEPISVTNGGH | soluble
8 | MPSKKKKIVVIGRSNLQNLYIHTILLKKLPAEIYLIDEQAKTSVQDFEYASYYHSSATVNTGTFNECRSADLVLFFQEEMSNESFSNEDNLALIKEKVKKMMATGFQGIVLVATAESNIVASLIKHFSGLPANQIITPGTMLATSYFQVEIAKLFKISPKNVHGYIIGESTQDVIPVWSRAFLGGKPILSYLAEEQKRITSDDLQNLTNMITKIPDFPVETKDGCSFRFSTVTVLAELTEVILRDEARVLTVGVEVKEAYGLERPVFVSVPAVVGAEGVRELLELNLSDDEQKELKRITTKTTEKLGLLHNKGGIS | not soluble
9 | GPGSMKRADGRESPRAVRAIHVATNVLANCHSSACVEIGKTRVLCGVRPPQHLVQEYRGTRGRVSCQVHRSLASSSNLDNSGDRDMALALEGVAEQAVVLERIPQLLVGVLIEVVHDDGALWDAATTALCVALTAGGVEVYDTFSACSAALRHDGAIIVDLTREEAAAAMASVVVCSGLSLGGVYYCCHKGACEATTMSQLVQAATKGLQVRKVPLLEQIRNQLV | soluble
10 | MGSDKIHHHHHHMSFPDVTNYYLFAQVMACGSISAASRELGLPKSTISRKMALLEQEQGTRLFHRSRSGLKLTDVGREFLVHCERLVSAAESAQQVTQRLLDKPRGKVEISAPYALSQSLLVQVLPEFMSLYPEVEIQLVVTNRPVNLIEEGIDIALRVRKNIEDSSLIARPISQAPQTLYIAPDLINQNSITEPEDLLTFEHLSMHYTNGRYGYELIHSSGLQKNIRIKPRLITDDMIVLREAAIKKLGIVALPNYLCNDAVNSGELVPVLTDWHLPIGIMHITYSHRRGILPAVRVLIDFLAEKLPHLAQQQF | not soluble
11 | MGSDKIHHHHHHMLKINMFSAADSVKGQGVGSAYNELMNLLKTHLNQEFDVSVNRYRRVDITHYHTINFSYYLSTFLPHRGRKIGYVHFLPETLEGSLKIPQPFRSIFYAYVLAFYRRMDHIVVVNPTFIPKLVAAGIPAERVTYIPNFVSRDEFYPVTVEQKQALRQQYGYATDRFTILGIGQIQERKGLFDFIKLARNNPSYQFIWAGGFSFGRMTDGYAELKKVVDNPPANLSFPGIVDRDKLVDYYNLADLFLLPSFNELFPMSVLEAFSTGTPVLLRDLDLYQAIIAGDYQPAKDYAEMDEQLHRLAADPQALAHWRQQSLAAADRYSEEHLTQIWREFYTQQAKER | not soluble
12 | AVQRAKEVLEEISCYPENNDAKELKRILTQPHFMALLQTHDVVAHEVYSD | soluble
13 | MGSDKIHHHHHHMLSALWVSKTGLSAQDMNLTTISNNLANVSTTGFKRDRAEFQDLLYQIRRQPGGQSTQDSELPSGLQLGTGVRVVGTQKIFTPGSLQTTEQPLDMAVNGRGFFQVLLPDGTVSYTRDGSFHLNSDGQIVTSNGFALEPAIVVPNETQTFTVGQDGTVSVTTTGNAQPQVIGNIQTADFINPAGLQAIGNNLFLETGSSGAPQVGTPGLNGLGTVAQNTLENSNVNVVEELVNMITTQRAYEMNSKVISTADQMLSFVTQNL | not soluble
14 | MTDTQVTWLTQESHDRLKAELDQLIANRPVIAAEINDRREEGDLRENGGYHAAREEQGQQEARIRQLQDLLSNAKVGEAPKQSGVALPGSVVKVYYNGDKSDSETFLIATRQEGVSDGKLEVYSPNSPLGGALIDAKVGETRSYTVPNGSTVSVTLVSAEPYHS | soluble
15 | MERECEESVVVAVVTEPRFTQRYRDYLEEQKLLDRLHRVAKLRDGAVALPVLAESLSEQHLQELRDRVAPGSTCVLTRLPDPLPSKKARVRSPAQILCLEVRRWVEDRGVTWSAELEADLPRSWQRHGDLMLLSEDCFQATLWKGLEPELWETVASALGVQRLAKRGRVLPDGTRTPSVTLLLGDHGWVEHMDNGIRYKFDVTQCMFSFGNITEKLRVASLSCAGEVLVDLYAGIGYFTLPFLVHAGAAFVHACEWNPHAVVALRNNLEINGVADRCQIHFGDNRKLKLSDIADRVNLGLIPSSKEGWPVACQVLRKDVGGILHIHQNVESFSGKTPQPPGSNNVEKEHWPRPQKITTDTQGNGTTENFRGEISSANKPEWWRWAESAETQIASLLHQVHGKPWRTRILHVHPVKSYAPHVDHIVLDLECRPLTSSWPEGVDLLTQ | soluble
16 | MAHHHHHHMGCGGSKPNAVSRDVEEKALYLRGIKESIDKAEGNMLATLHALQALMRSYESTSYSFVELAHGTDGNTSLKAKTFESDMRTLKDSGIMPKLQKDLGQSVSSLGKDIRAKHDKANVVYREMTQANDAYCKLRERVNGIEKSYAKKNKPVSECPSYTKNCKERDVCLARYEGLKKVFLTLVEELRTLIRSYVTAGLTRYAFSTADYAQQLVNSLQKYKSE | soluble
17 | WYPSRPLVTTPSQADIQADQSSPRDLLEYFLSGLGETSLPVIQQQVQRYEQENQGLLIDSSLFAQYVQYKAALSELTLPQASGGLSTQEWWQLHQSLLDLQARYFSAEQQALFAEENRLRELAIEKRRIYEQYGQSEEAQRAWQALLLDQPDFIQRSEATAQLLPQLTQAGQGDTQQRYLARVALVGEQGAQRLAELDDSRATFEQQFQDYYQARAAILVRNELSASEQQTQIQQLREQHFAPEQWRRIDALERLKDN | not soluble
18 | GPGSMFHNSYQAGFLSILYSIGSKPLQIWDSQVRNGHVKRITDEDIQSSVLEIMGSNVSTCYIVCPANPKQTLGIKLPFLVMIIKNMKKYFSFEVTILDDKNMRRRFRASNYQSTTKVKPFICTMPMRLDEGWNQIQFNLSDFTRRAYGTNYVETLRVQVHANCRIRRLYFSDRLYAEEELPPEFKLFLPIAQQPPAAAAAEQRDIEAADVPQAASAAQ | soluble
19 | MSEAAQTLDGWYCLHDFRTIDWSAWKTLPNEEREAAISEFLALVDQWETTESEKQGSHAVYTIVGQKADILFMILRPTLDELHEIETALNKTKLADYLLPAYSYVSVVELSNYLASGSEDPYQIPEVRRRLYPILPKTNYICFYPMDKRRQGNDNWYMLSMEQRRELMRAHGMTGRKYAGKVTQIITGSVGLDDFEWGVTLFSDDALQFKKLVYEMRFDEVSARFGEFGSFFVGTRLPMENVSSFFHV | soluble
20 | NIVLTQSPKSMSVSVGERVTLSCKASENVDTYVFWFQQKPDQSPKLLLYGPSNRYTGVPDRFTGSGSTTDFTLTISSVQAEDLADYHCGQSYSYPYTFGGGTKLEIKRADAAPTVSIFPPSSEQLTSGGASVVCFLNNFYPKDINVKWKIDGSERQNGVLNSWTDQDSKDSTYSMSSTLTLTKDEYERHNSYTCEATHKTSTSPIVKSFNRNEC | soluble
21 | MSEKLRRCRKELTAAIDRAFEGVRHSQECTAQQRLDAPSLTSQPVHRLLCRNPLAACPSAAPYSGASCAPESENPAFGTHHIPVNSKLQQPLYPKRKPLTSKENVLMQSSILARDRQFWRAAGDGEDWRKDSLRKDMERDLKADPNVLLSSSSQEVTKDLLDMIDHTSIRTIEELAGKLEFENELNRVCGHCQDSPFKEEAWALLVDESPQKALDADPGSLKQALDDQNIVETVLDLEEDYNLMTSFKYQIE | soluble
22 | MASMQKLINSVQNYAWGSKTALTELYGIANPQQQPMAELWMGAHPKSSSRITTANGETVSLRDAIEKNKTAMLGEAVANRFGELPFLFKVLCAAQPLSIQVHPNKRNSEIGFAKENAAGIPMDAAERNYKDPNHKPELVFALTPFLAMNAFREFSDIVSLLQPVAGAHSAIAHFLQVPNAERLSQLFASLLNMQGEEKSRALAVLKAALNSQQGEPWQTIRVISEYYPDDSGLFSPLLLNVVKLNPGEAMFLFAETPHAYLQGVALEVMANSDNVLRAGLTPKYIDIPELVANVKFEPKPAGELLTAPVKSGAELDFPIPVDDFAFSLHDLALQETSIGQHSAAILFCVEGEAVLRKDEQRLVLKPGESAFIGADESPVNASGTGRLARVYNKL | soluble
